Columns and labels:
[1] = target: DC-SIGN (human) (UniProt Q9NNX6); assay: cell-based or functional assay
[2] = target: DC-SIGN (human) (UniProt Q9NNX6); assay: flow cytometry, immature DC day 7 (endogenous DC-SIGN)
[3] = target: DC-SIGN (human) (UniProt Q9NNX6); assay: flow cytometry, mature DC day 9, TNFα-matured (endogenous DC-SIGN)
[4] = target: DC-SIGN (human) (UniProt Q9NNX6); assay: flow cytometry, mature DC day 9, LPS-matured (endogenous DC-SIGN)
[5] = target: DC-SIGN (human) (UniProt Q9NNX6); assay: flow cytometry, mature DC day 9, MCM/PGE2-matured (endogenous DC-SIGN)

DC-SIGN (human), sequence (Q9NNX6 whole entry): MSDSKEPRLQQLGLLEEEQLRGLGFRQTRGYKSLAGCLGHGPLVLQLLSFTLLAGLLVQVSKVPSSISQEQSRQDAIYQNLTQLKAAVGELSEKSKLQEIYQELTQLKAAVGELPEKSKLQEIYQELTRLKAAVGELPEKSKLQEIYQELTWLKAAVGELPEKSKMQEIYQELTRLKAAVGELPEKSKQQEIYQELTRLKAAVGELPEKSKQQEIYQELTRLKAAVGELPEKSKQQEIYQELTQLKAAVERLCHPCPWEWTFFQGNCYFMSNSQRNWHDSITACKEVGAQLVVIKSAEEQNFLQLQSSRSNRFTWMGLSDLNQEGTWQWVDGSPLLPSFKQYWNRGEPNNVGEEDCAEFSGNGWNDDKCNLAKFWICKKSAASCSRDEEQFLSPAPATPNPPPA

| mean fluorescence of staining (mean fluorescence) [2] | mean fluorescence of staining (mean fluorescence) [3] | mean fluorescence of staining (mean fluorescence) [4] | mean fluorescence of staining (mean fluorescence) [5] | Substance | luciferase activity (unactivated T cells, THP-SIGN cells relative to THP cells) [1] [fold] |
| --- | --- | --- | --- | --- | --- |
| – | – | – | – | HxB2 envelope (from UniProt P04578 33-856) | 20 |
| 980 | 420 | 489 | 445 | AZN-D1 (antibody) | – |
